Source: PMC5175346

Assays:
Experiment in all cases: fluorescence anisotropy
PriA wt = PriA wt (Escherichia coli, UniProt P17888 1-732)
PriA R334A = PriA R334A (Escherichia coli, UniProt P17888 1-732, R334A)
PriA K328A = PriA K328A (Escherichia coli, UniProt P17888 1-732, K328A)
PriA Y335A = PriA Y335A (Escherichia coli, UniProt P17888 1-732, Y335A)
PriA Q330A = PriA Q330A (Escherichia coli, UniProt P17888 1-732, Q330A)
PriA W333A = PriA W333A (Escherichia coli, UniProt P17888 1-732, W333A)
PriA Q329A = PriA Q329A (Escherichia coli, UniProt P17888 1-732, Q329A)

Measured: binding result

B1: two-stranded fork, structure #1 (1b-98/3L-98) (structured_DNA)
DNA 1: GCAAGCCTTCTACAGGTCGACCGTCCATGGCGACTCGAGACCGCAATACGGATAAGGGCTGAGCACGCCGACGAACATTCACCACGCCAGACCACGTA
DNA 2: GACTATCTACGTCCGAGGCTCGCGCCGCAGACTCATTTAGCCCTTATCCGTATTGCGGTCTCGAGTCGCCATGGACGGTCGACCTGTAGAAGGCTTGC
binds: PriA wt | PriA R334A | PriA K328A | PriA Y335A | PriA Q330A | PriA W333A | PriA Q329A
